This note sets out measurements from paper PMC8408612.

Holding throughout (assay): co-IP
The target of assay [1] is endogenous dynein intermediate chain (DIC) of COS7 cells (African green monkey (endogenous in COS7)).
Another assay deals with Flag-CRMP4 (UniProt Q14195).
For assay [2], the target named is endogenous mouse dynein intermediate chain (DIC) (mouse (endogenous in sciatic nerve and primary motor neurons)) (UniProt O88485).
UniProt O88485, sequence (O88485 whole entry): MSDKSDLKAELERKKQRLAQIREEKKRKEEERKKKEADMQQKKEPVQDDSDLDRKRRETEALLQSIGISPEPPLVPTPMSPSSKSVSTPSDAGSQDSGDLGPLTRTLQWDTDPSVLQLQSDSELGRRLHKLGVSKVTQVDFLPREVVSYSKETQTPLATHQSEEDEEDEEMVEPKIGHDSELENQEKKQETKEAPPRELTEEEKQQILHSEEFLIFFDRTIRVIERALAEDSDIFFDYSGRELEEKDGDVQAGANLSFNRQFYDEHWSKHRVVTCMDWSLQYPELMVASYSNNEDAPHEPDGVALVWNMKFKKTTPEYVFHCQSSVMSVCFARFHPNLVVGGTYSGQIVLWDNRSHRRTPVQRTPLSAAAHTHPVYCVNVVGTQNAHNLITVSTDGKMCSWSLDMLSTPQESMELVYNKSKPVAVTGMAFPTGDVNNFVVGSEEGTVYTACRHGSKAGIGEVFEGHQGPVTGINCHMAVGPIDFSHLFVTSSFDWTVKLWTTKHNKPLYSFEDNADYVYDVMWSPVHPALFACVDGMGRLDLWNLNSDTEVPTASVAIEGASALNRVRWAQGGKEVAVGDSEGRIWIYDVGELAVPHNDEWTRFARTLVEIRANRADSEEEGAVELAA

Flag-CRMP4, sequence (Q14195 whole entry): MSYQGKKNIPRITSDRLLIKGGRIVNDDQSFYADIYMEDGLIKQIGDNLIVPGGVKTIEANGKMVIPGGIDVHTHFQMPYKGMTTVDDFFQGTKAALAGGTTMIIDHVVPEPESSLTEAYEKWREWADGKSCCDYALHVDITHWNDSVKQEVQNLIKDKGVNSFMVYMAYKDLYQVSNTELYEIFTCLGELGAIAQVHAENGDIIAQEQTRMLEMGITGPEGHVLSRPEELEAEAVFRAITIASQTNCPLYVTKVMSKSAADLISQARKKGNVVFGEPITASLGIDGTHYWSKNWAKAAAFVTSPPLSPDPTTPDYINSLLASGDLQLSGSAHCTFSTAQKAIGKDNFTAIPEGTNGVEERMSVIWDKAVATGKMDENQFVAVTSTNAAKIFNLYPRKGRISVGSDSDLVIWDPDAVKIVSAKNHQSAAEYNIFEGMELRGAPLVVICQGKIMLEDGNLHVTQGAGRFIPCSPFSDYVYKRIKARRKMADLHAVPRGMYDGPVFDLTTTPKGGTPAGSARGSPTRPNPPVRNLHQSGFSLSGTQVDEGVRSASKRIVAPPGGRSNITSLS

With “CRMP4 (transfected together with AAV9-GFP or AAV9-GFP-50aa, Figure 4H) (from UniProt Q14195 1-570) (natural protein)”, in assay [1], the CRMP4 band normalised to DIC band (mean), cells with GFP-50aa stood at 0.54 and the CRMP4 band normalised to DIC band (mean), control cells with GFP was determined as 1.

With “Flag-CRMP4 (from UniProt Q14195 1-570) (natural protein)”, the CRMP4 band normalised to DIC band (mean) in assay [1] was found to be 1.

Consider “dynactin (p150), endogenous in COS7 cells (natural protein)”, for which, in the assay with Flag-CRMP4, the dynactin band normalised to Flag-CRMP4 band (mean), no peptide (Fig 4E) came to 0.77; the dynactin band normalised to Flag-CRMP4 band (mean), no peptide (Fig 4G) came to 1.92; the dynactin band normalised to Flag-CRMP4 band (mean), with peptide-1 was 1.44; the dynactin band normalised to Flag-CRMP4 band (mean), with peptide-2 came to 1.34. Further, in the assay with Flag-CRMP4, the dynactin band normalised to Flag-CRMP4 band (mean), with peptide-3 was 1.8; the dynactin band normalised to Flag-CRMP4 band (mean), with peptide-4 amounted to 1.13; the dynactin band normalised to Flag-CRMP4 band (mean), with peptides 1-4 (Fig 4E) is 0.17.

In assay [2], “endogenous mouse CRMP4 (from UniProt Q62188 1-570) (natural protein)” came in with a CRMP4 band normalised to DIC band (mean), SOD1G93A sciatic nerve of 1.48 and a CRMP4 band normalised to DIC band (mean), WT sciatic nerve of 0.28.

“full-length GFP-CRMP4 (from UniProt Q14195 1-570) (natural protein)” registered a CRMP4 band co-precipitated with DIC (densitometry, mean) in assay [1] of 1.47.

For “mutated Flag-CRMP4-I141V (from UniProt Q14195 1-570) (natural protein)”, the CRMP4 band normalised to DIC band (mean) in assay [1] stood at 1.62.
